Experimental findings from patent publication US20240216432A1 (HEMOGENYX PHARMACEUTICALS, published 2024) are described below.

“And” between values parts separate entries of the source, which are not always exact repeats. Equal entries are not always repeated.

Assay [1] deals with T1, FLT3 (Fms Related Receptor Tyrosine Kinase 3) (human, UniProt P36888 27-993).
T1 construct: whole, on cells; The target is endogenous FLT3 on human leukemia cell lines; also called human FLT3; FLK2
As to the kind of experiment: flow cytometry on REH cells, anti-human IgG Fc Alexa Fluor 488 detection, with or without 10 nM FLT3L pre-incubation. An excerpt: Cells were then stained with various concentrations of the chimeric monoclonal antibody prepared in flow buffer. Cells were washed five times with flow buffer and stained with anti-human IgG Fc antibody conjugated to Alexa Fluor 488 (Jackson Immunoresearch Laboratories, 109-545-008). Cells were stained with 7-AAD (7-AAD Viability Staining Solution, Biolegend 420404) followed by flow cytometry analysis.
Background: A flow cytometer gives signals particle by particle.

The target in assay [2] is T1, FLT3 (Fms Related Receptor Tyrosine …). Description: flow cytometry on REH cells, median fluorescence intensity against concentration, four-parameter fit, goat anti-human Fc FITC detection. As for the experimental part: (§1) REH cells were incubated with varying concentrations (10⁻¹ to 10⁴ ng/mL) of the IgG1 or scFv molecules diluted in FACS buffer (hereinafter referred to simply as “buffer,” phosphate buffered saline (PBS) (Caisson Labs, no. PBL06)+2% BCS (GE Healthcare, no. SH30073.04)+1 mM EDTA (Invitrogen, no. 15575020)) in a final volume of 100 μL, in triplicate, for 30 minutes at 4° C. Cells were washed three times with buffer and incubated with secondary antibodies. IgG1 was detected with 1:200 goat anti-human Fc FITC (Jackson) secondary antibody and scFv was detected with anti-His FITC (1:200) secondary antibody. Secondary antibodies were incubated in 100 μL final volume in triplicate for 30 minutes at 4° C. Cells were washed once with buffer and resuspended in 200 uL buffer+1:100 7-AAD Viability Staining Solution (Biolegend, no. 420404), and analyzed by flow cytometry. Flow cytometry acquisition was performed with a Beckman Coulter CytoFLEX (Beckman Coulter), and analysis was performed with FlowJo (Treestar Inc, Ashland, OR). Plots show median fluorescence intensity of REH cells versus concentration of the primary antibody used. Variable slope (four parameters) curve was fit to the data and EC50 was used to compare binding affinities.

Assay [3] has the same target. Description: flow cytometry on REH cells, median fluorescence intensity against concentration, four-parameter fit, anti-His FITC detection. As for the experimental part: as §1

B1: chimeric antibody 1-18BA (mouse VL and mouse VH, human IgG) (antibody, V domains shown)
VH: QVTLKESGPGILQPSQTLSLTCSFSGFSLSTSTMGVGWIRQPSGKGLEWLLHILWNDSKYYNPALKSRLTISKDTYNKQVFLKIANVDTADTATYYCARIVYYSTYVGYFDVWGAGTTVTVSS
VL: DIQMTQSPSSLSASLGERVSLTCRASQEISGYLSWLQQKPDGTIKRLIYAASTLHSGVPKRFSGSRSGSDYSLTISRLESEDVADYYCLQYASYPFTFGSGTKLEIK
notes: these appear to be the numbers of US 20190389955; also called chimeric anti-FLT3 antibody; cAb1977-10.0
For B1, in assay [1], the binding result is given as “binds”.

B2: fully humanized anti-human FLT3 monoclonal IgG1, clone hum 1-18BA-v1 (antibody, V domains shown)
VH: QVTLKESGPTLVKPTQTLTLTCTFSGFSLSTSTMGVGWIRQPPGKALEWLAHILWNDSKRYNPSLKSRLTITKDTSKKQVVLTMTNMDPVDTATYYCARIVYYSTYVGYFDVWGQGTTVTVSS
VL: DIQMTQSPSSLSASVGDRVTITCRASQEISGYLSWLQQKPGKAIKRLIYAASTLQSGVPSRFSGSRSGSDYTLTISSLQPEDFATYYCLQYASYPFTFGQGTKLEIK
notes: also called humanized anti-FLT3 IgG; IgG1 molecule
By EC50 is commonly meant the concentration that produces a half-maximal response. For the molecule B2, the EC50 in assay [2] is 0.0621 µg/mL and 0.41 nM.

B3: his-tagged scFv, clone hum 1-18BA-v1 (SEQ ID NO: 4 with a His tag on the C terminus) (scFv)
scFv: DIQMTQSPSSLSASVGDRVTITCRASQEISGYLSWLQQKPGKAIKRLIYAASTLQSGVPSRFSGSRSGSDYTLTISSLQPEDFATYYCLQYASYPFTFGQGTKLEIKGGGGSGGGGSGGGSGGGGSQVTLKESGPTLVKPTQTLTLTCTFSGFSLSTSTMGVGWIRQPPGKALEWLAHILWNDSKRYNPSLKSRLTITKDTSKKQVVLTMTNMDPVDTATYYCARIVYYSTYVGYFDVWGQGTTVTVSS
notes: also called humanized anti-FLT3 scFv; scFv molecule; not shown: C-terminal His tag
Consider B3, for which the EC50 in assay [3] is 0.0854 µg/mL and 3.42 nM.
